This note sets out measurements from patent US20060062729A1, “Enhanced ligand binding to neurotensin receptors” (priority 2004, published 2006).

Where “and” joins values, the source holds several entries; their conditions need not be identical. Equal entries are not always repeated.

The subject of one test is PC3 cells. The test can be described thus: ATP-induced IP formation in PC3 cells. In kind it is cell-based. Particulars: maximal dose of ATP (10 μM).
The next test concerns the target T1, bombesin receptor (Homo sapiens, UniProt P30550).
T1 construct: endogenous in cells; host or cells: PC3 cells (ATCC)
The test can be described thus: ^125I-[Nle^14]-bombesin binding to PC3 cells.

For test [1], the target named is T2, NTR1 (Homo sapiens, UniProt P30989). The test can be described thus: ^125I-NT binding to PC3 cells. Particulars: maximal % increase in NT binding observed for each agent.
T2 sequence (P30989 whole entry): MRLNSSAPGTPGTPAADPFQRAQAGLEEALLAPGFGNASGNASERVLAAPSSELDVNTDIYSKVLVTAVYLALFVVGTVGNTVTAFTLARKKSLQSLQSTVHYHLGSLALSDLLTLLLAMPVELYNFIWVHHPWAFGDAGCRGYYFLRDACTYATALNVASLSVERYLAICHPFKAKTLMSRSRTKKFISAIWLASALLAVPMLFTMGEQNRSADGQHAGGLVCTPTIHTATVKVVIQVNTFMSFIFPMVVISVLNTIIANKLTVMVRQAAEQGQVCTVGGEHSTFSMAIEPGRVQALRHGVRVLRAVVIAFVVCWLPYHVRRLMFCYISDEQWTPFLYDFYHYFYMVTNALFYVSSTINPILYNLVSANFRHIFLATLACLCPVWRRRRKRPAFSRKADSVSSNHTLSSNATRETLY
For test [2], the target named is T2, NTR1. Briefly: NT-induced IP formation in PC3 cells. Particulars: maximal % decrease in NT-induced IP formation. It is filed as cell-based. Further details: Ab-NTR1 detected two major bands in extracts of PC3 cells, the parent protein of 50 kDa; endogenous in cells; host or cells: PC3 cells (ATCC).
In test [3] the target is T2, NTR1. The test can be described thus: ^125I-NT binding to isolated PC3 cell membranes. Further details: Ab-NTR1 detected two major bands in extracts of PC3 cells, the parent protein of 50 kDa; endogenous in cells; host or cells: PC3 cells (ATCC).
For test [4], the target named is T2, NTR1. In kind it is cell-based. Further details: Ab-NTR1 detected two major bands in extracts of PC3 cells, the parent protein of 50 kDa; endogenous in cells; host or cells: PC3 cells (ATCC). Particulars: 50 μM agent, 37° C., ^125I-NT prebound at 4° C.
The target in test [5] is vasopressin (V1a) receptor of PC3 cells (UniProt P37288). The test can be described thus: Scatchard analysis, PC3 cells.
Chain of vasopressin (V1a) receptor of PC3 cells (P37288 whole entry): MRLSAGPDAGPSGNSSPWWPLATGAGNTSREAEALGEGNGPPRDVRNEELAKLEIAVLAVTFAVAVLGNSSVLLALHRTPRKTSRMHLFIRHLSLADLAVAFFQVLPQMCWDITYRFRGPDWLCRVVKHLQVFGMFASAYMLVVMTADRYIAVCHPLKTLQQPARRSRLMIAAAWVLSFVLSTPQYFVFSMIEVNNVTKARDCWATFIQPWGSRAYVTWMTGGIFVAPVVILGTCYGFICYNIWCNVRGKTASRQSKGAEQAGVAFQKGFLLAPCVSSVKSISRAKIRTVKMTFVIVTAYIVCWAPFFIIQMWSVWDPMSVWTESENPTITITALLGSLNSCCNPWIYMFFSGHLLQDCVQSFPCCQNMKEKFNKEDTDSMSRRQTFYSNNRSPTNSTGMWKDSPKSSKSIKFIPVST
For test [6] the target is unchanged. The test can be described thus: 125I-ligand binding to PC3 cells.
Test [7] has the same target. Briefly: 125I-ligand binding to PC3 cells with 12 µM NIF.
The target is the same in test [8]. Briefly: 125I-ligand binding to PC3 cells with 60 µM NIF.
The target is the same in test [9]. The test can be described thus: 125I-ligand binding to PC3 cells with 12 µM SKF-96365.
The target is the same in test [10]. Briefly: 125I-ligand binding to PC3 cells with 12 µM phloretin.
Test [11] has the same target. The test can be described thus: 125I-ligand binding to PC3 cells with 12 µM verapamil.
For test [12] the target is unchanged. Briefly: 125I-ligand binding to PC3 cells with 60 µM SKF-96365.
For test [13] the target is unchanged. The test can be described thus: 125I-ligand binding to PC3 cells with 60 µM phloretin.
Test [14] shares this target. Briefly: 125I-ligand binding to PC3 cells with 60 µM verapamil.
Test [15] shares this target. Briefly: 125I-HOLVA binding to PC3 cell membranes with 60 µM NIF.
Test [16] shares this target. Briefly: 125I-ligand binding to PC3 cells, 37 C, with 12 µM NDGA.
For test [17] the target is unchanged. Briefly: 125I-ligand binding to PC3 cells, 37 C, with 60 µM NDGA.
The target is the same in test [18]. The test can be described thus: 125I-ligand binding to PC3 cells, 37 C, with 12 µM MK886.
The target is the same in test [19]. The test can be described thus: 125I-ligand binding to PC3 cells, 37 C, with 60 µM MK886.
The target is the same in test [20]. The test can be described thus: 125I-ligand binding to PC3 cells, 37 C, with 12 µM AA-861.
For test [21] the target is unchanged. Briefly: 125I-ligand binding to PC3 cells, 37 C, with 60 µM AA-861.
For test [22] the target is unchanged. The test can be described thus: 125I-ligand binding to PC3 cells, 37 C, with 12 µM Rev-5901.
Test [23] shares this target. The test can be described thus: 125I-ligand binding to PC3 cells, 37 C, with 60 µM Rev-5901.
Test [24] shares this target. The test can be described thus: 125I-HOLVA binding to PC3 cell membranes with 60 µM SKF-96365.
For test [25] the target is unchanged. The test can be described thus: 125I-HOLVA binding to PC3 cell membranes with 60 µM verapamil.
Test [26] shares this target.

For orientation: Ki means a measure of affinity in units of concentration, obtained from inhibition or displacement. Higher therefore signals lower affinity.

T1 sequence (P30550 whole entry): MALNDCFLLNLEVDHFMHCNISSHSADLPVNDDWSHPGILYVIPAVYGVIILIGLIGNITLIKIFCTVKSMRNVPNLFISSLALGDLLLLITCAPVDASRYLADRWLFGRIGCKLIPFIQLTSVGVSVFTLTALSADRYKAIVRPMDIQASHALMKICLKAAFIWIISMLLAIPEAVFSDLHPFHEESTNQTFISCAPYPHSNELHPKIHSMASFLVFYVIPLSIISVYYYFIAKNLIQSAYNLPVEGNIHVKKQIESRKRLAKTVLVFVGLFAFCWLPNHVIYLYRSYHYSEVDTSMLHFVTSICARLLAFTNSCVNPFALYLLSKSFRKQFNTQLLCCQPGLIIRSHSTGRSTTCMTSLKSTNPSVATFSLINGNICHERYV

Turning to `Nc1ncnc2c1ncn2[C@@H]1O[C@H](COP(=O)(O)OP(=O)(O)OP(=O)(O)O)[C@@H](O)[C@H]1O` [ATP], the “stimulation of IP formation” value in the test with PC3 cells is ~17 fold and > 15 fold.

As to `O=C(CCc1ccc(O)cc1)c1c(O)cc(O)cc1O` [Phloretin], the “Specific Binding (% control) of ^125I-[Nle^14]-bombesin” value was found to be 104 ± 3 % control on bombesin receptor (12 μM agent) and 111 ± 4 % control at bombesin receptor (60 μM agent). Also, the “NT Binding Efficacy % increase” value at NTR1 [1] is reported as 186 % increase. Besides, the “IP Formation Efficacy (% decrease)” value at NTR1 [2] is 70 % decrease. In addition, the “Specific NT-Binding (% control)” value at NTR1 [3] (10 μM agent, 22° C., 60 minutes) was 110 ± 7 % control; on NTR1 [3] (25 μM agent) it was 105 ± 8 % control; at NTR1 [3] (75 μM agent), 97 ± 8 % control. Further, the Internalization rate at NTR1 [4] is on record as 8.1±0.7 %/minute.

As to “des-Gly-[Phaa1, D-Tyr(Et)2, Lys6, Arg8]-vasopressin (HOLVA) (peptide)”, the Bmax in test [5] turned out to be 156 fmol/mg. Further, the Specific Binding (% of total) in test [6] is 77 % of total. For the same compound, the Specific Binding (% control) in test [7] worked out at 95 % control; in test [8], 59 % control; in [9] it was 80 % control; in test [10], 92 % control; in test [11], 85 % control; in [12], 50 % control. Also, the Specific Binding (% control) in [13] turned out to be 73 % control; in test [14], 58 % control; in test [16] it was 84 % control; in test [17] it was 50 % control; in test [18] it was 93 % control; in test [19] it was 67 % control. Moreover, the Specific Binding (% control) in [20] came to 87 % control; in [21], 57 % control; in test [22], 68 % control; in test [23], 42 % control. For the same compound, the results for the Binding (% control) in test [15], in test [24] and in test [25] were 90 % control, 110 % control and 91 % control, respectively. This compound also returned a Ki in [26] of 0.5 nM.
